{"source": "paper PMC5063977", "about": "(The Journal of Biological Chemistry, 2016)", "key": {"[1]": {"system": "RAMP-CLR complexes (RAMP1, RAMP2, RAMP3)", "assay": "(Ca^2+)i mobilization with inhibitor pretreatment, HEK-293 cells, all RAMP-CLR complexes", "assay_type": "cell-based, human", "details": "100 nM YM-254890, 30 min pretreatment", "procedure": "FIGURE 8. CLR in combination with each RAMP generates receptors that mobilize (Ca^2+)i release when expressed in HEK-293 cells. (Ca^2+)i mobilization was determined from HEK-293 cells transiently transfected with CLR and RAMP1 (n = 5) (A), RAMP2 (n = 5) (B), and RAMP3 (n = 5) (C). […] Data are expressed as percentage of the maximal (Ca^2+)i release as determined using 10 μM ionomycin. To determine the contribution made by different G proteins to the (Ca^2+)i response, cells were preincubated with either PTX (to inhibit Gαi) or YM-254890 (a selective Gαq inhibitor). All values are means ± S.E. of n individual data sets.\nHEK-293 cells, provided by Dr. Jügen Müller (University of Aston), were cultured in DMEM supplemented with 10% heat-inactivated FBS and kept at 37 °C in a humidified 95% air, 5% CO2 incubator. HEK-293S cells (a gift from AstraZeneca) were cultured in DMEM supplemented with 8% heat-inactivated FBS and kept at 37 °C in a humidified 95% air, 5% CO2 incubator. HEK-293 cells were transfected with FuGENE 6 (Roche Applied Science) in accordance with the manufacturer's instructions using a 1:3 (w:v) DNA:FuGENE ratio and a 1:1 ratio of RAMP to CLR. HEK-293S cells were seeded into 96-well poly-D-lysine-coated plates at a density of 15,000 cells/well (determined using a Countess^TM cell counter, Invitrogen) 1 day prior to transfection. HEK-293S cells were transiently transfected as described previously ([38]) using a 1:1 ratio of RAMP to CLR. The transfected cell lines were grown for 24–48 h prior to assaying.\nTransfected HEK-293 cells were grown to confluence in black, clear bottomed, 96-well plates. […] Ligands were added robotically using a Mithras LB 940 multimode microplate reader in the range of 10 pM to 1 μM, and fluorescence was determined immediately post-injection with an excitation wavelength set to 485 nm and an emission wavelength set to 535 nm. […] Peak magnitude was calculated using five-point smoothing followed by correction against background fluorescence. […]"}, "[2]": {"biological_target": "RAMP3-CLR complex expressed in HEK-293 cells (human) (UniProt Q16602)", "sequence (Q16602 23-461, chain 1 of 2)": "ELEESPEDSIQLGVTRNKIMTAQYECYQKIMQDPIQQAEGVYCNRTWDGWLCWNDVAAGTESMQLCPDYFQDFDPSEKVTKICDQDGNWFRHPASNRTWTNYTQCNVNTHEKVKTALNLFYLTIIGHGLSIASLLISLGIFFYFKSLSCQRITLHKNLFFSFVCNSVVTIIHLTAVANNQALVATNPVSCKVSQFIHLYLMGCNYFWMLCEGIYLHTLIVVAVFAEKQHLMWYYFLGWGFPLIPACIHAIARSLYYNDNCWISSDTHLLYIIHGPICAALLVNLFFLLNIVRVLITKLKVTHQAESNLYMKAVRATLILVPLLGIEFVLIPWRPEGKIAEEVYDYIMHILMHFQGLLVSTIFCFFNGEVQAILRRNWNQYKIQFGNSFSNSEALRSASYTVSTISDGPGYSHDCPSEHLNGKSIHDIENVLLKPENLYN", "sequence (O60896 24-148, chain 2 of 2, further chain)": "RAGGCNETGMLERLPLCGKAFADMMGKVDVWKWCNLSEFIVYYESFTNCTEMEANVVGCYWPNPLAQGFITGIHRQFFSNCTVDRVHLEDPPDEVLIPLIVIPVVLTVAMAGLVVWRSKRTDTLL"}, "[3]": {"biological_target": "RAMP1-CLR complex expressed in HEK-293 cells (human) (UniProt Q16602)", "sequence (Q16602 23-461, chain 1 of 2)": "as the sequence (Q16602 23-461, chain 1 of 2) above", "sequence (O60894 27-148, chain 2 of 2, further chain)": "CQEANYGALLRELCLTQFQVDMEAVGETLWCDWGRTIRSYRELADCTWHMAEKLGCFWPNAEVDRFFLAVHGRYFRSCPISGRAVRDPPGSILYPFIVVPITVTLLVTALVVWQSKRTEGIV"}, "[4]": {"biological_target": "RAMP2-CLR complex expressed in HEK-293 cells (human) (UniProt Q16602)", "sequence (Q16602 23-461, chain 1 of 2)": "as the sequence (Q16602 23-461, chain 1 of 2) above", "sequence (O60895 43-175, chain 2 of 2, further chain)": "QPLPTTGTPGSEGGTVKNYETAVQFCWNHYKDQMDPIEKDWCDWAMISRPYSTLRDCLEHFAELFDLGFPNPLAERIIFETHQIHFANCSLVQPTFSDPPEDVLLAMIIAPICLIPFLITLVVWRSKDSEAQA"}, "[5]": {"biological_target": "RAMP3-CLR heterodimer expressed in S. cerevisiae (human) (UniProt Q16602)", "sequence (Q16602 23-461, chain 1 of 2)": "as the sequence (Q16602 23-461, chain 1 of 2) above", "sequence (O60896 24-148, chain 2 of 2, further chain)": "as the sequence (O60896 24-148, chain 2 of 2, further chain) above"}, "[6]": {"biological_target": "RAMP2-CLR heterodimer expressed in S. cerevisiae (human) (UniProt Q16602)", "sequence (Q16602 23-461, chain 1 of 2)": "as the sequence (Q16602 23-461, chain 1 of 2) above", "sequence (O60895 43-175, chain 2 of 2, further chain)": "as the sequence (O60895 43-175, chain 2 of 2, further chain) above"}, "[7]": {"biological_target": "RAMP1-CLR heterodimer expressed in S. cerevisiae (human) (UniProt Q16602)", "sequence (Q16602 23-461, chain 1 of 2)": "as the sequence (Q16602 23-461, chain 1 of 2) above", "sequence (O60894 27-148, chain 2 of 2, further chain)": "as the sequence (O60894 27-148, chain 2 of 2, further chain) above"}, "[8]": {"biological_target": "RAMP3-CLR complex expressed in HEK-293 cells (human) (UniProt Q16602)", "remark": "listed apart in the source"}, "[9]": {"biological_target": "RAMP1-CLR complex expressed in HEK-293S cells (human) (UniProt Q16602)", "sequence (Q16602 23-461, chain 1 of 2)": "as the sequence (Q16602 23-461, chain 1 of 2) above", "sequence (O60894 27-148, chain 2 of 2, further chain)": "as the sequence (O60894 27-148, chain 2 of 2, further chain) above"}, "[10]": {"biological_target": "RAMP1-CLR complex expressed in HEK-293 cells (human) (UniProt Q16602)", "remark": "listed apart in the source"}, "[11]": {"biological_target": "RAMP3-CLR complex expressed in HEK-293S cells (human) (UniProt Q16602)", "sequence (Q16602 23-461, chain 1 of 2)": "as the sequence (Q16602 23-461, chain 1 of 2) above", "sequence (O60896 24-148, chain 2 of 2, further chain)": "as the sequence (O60896 24-148, chain 2 of 2, further chain) above"}, "[12]": {"biological_target": "RAMP2-CLR complex expressed in HEK-293S cells (human) (UniProt Q16602)", "sequence (Q16602 23-461, chain 1 of 2)": "as the sequence (Q16602 23-461, chain 1 of 2) above", "sequence (O60895 43-175, chain 2 of 2, further chain)": "as the sequence (O60895 43-175, chain 2 of 2, further chain) above"}, "[13]": {"biological_target": "RAMP2-CLR complex expressed in HEK-293 cells (human) (UniProt Q16602)", "remark": "listed apart in the source"}, "[14]": {"biological_target": "RAMP3-CLR complex expressed in HEK-293 cells (human) (UniProt Q16602)", "remark": "listed apart in the source"}, "[15]": {"biological_target": "RAMP1-CLR complex expressed in HEK-293 cells (human) (UniProt Q16602)", "remark": "listed apart in the source"}, "[16]": {"biological_target": "RAMP2-CLR complex expressed in HEK-293 cells (human) (UniProt Q16602)", "remark": "listed apart in the source"}, "[17]": {"biological_target": "RAMP1-CLR complex expressed in HEK-293S cells (human) (UniProt Q16602)", "remark": "listed apart in the source"}, "[18]": {"biological_target": "RAMP3-CLR complex expressed in HEK-293S cells (human) (UniProt Q16602)", "remark": "listed apart in the source"}, "[19]": {"biological_target": "RAMP2-CLR complex expressed in HEK-293S cells (human) (UniProt Q16602)", "remark": "listed apart in the source"}}}
{"substance": "YM-254890", "values": [{"measurement": "effect of YM-254890 on (Ca^2+)i mobilization by AM and AM2", "setting": "[1]; HEK-293, all RAMP-CLR complexes", "result": "abolish all (Ca^2+)i mobilization"}, {"measurement": "effect of YM-254890 on response to CGRP", "setting": "[1]; HEK-293, all three RAMP-CLR complexes", "result": "considerably attenuated"}]}
{"substance": "hAM (peptide)", "values": [{"measurement": "pEC50, cAMP accumulation in HEK-293 cells, with PTX pretreatment", "setting": "[2]", "result": "9.1 -log10"}, {"measurement": "pEC50, cAMP accumulation in HEK-293 cells, without PTX", "setting": "[2]", "result": "8.98 -log10"}, {"measurement": "pKa (operational model of agonism), cAMP accumulation in HEK-293 cells, with PTX pretreatment", "setting": "[2]", "result": "8.94 -log10"}, {"measurement": "pKa (operational model of agonism), cAMP accumulation in HEK-293 cells, without PTX", "setting": "[2]", "result": "8.83 -log10"}, {"measurement": "pEC50, cAMP accumulation in HEK-293 cells, with PTX pretreatment", "setting": "[3]", "result": "8.14 -log10"}, {"measurement": "pEC50, cAMP accumulation in HEK-293 cells, without PTX", "setting": "[3]", "result": "7.93 -log10"}, {"measurement": "pKa (operational model of agonism), cAMP accumulation in HEK-293 cells, with PTX pretreatment", "setting": "[3]", "result": "7.66 -log10"}, {"measurement": "pKa (operational model of agonism), cAMP accumulation in HEK-293 cells, without PTX", "setting": "[3]", "result": "7.67 -log10"}, {"measurement": "pEC50, cAMP accumulation in HEK-293 cells, with PTX pretreatment", "setting": "[4]", "result": "10.2 -log10"}, {"measurement": "pEC50, cAMP accumulation in HEK-293 cells, without PTX", "setting": "[4]", "result": "10.3 -log10"}, {"measurement": "pKa (operational model of agonism), cAMP accumulation in HEK-293 cells, with PTX pretreatment", "setting": "[4]", "result": "9.83 -log10"}, {"measurement": "pKa (operational model of agonism), cAMP accumulation in HEK-293 cells, without PTX", "setting": "[4]", "result": "10 -log10"}, {"measurement": "pEC50, yeast growth reporter, GPA1/Gαi chimera strain", "setting": "[5]", "result": "7.89 -log10"}, {"measurement": "pEC50, yeast growth reporter, GPA1/Gαq chimera strain", "setting": "[5]", "result": "7.83 -log10"}, {"measurement": "pEC50, yeast growth reporter, GPA1/Gαs chimera strain", "setting": "[5]", "result": "8.15 -log10"}, {"measurement": "pKa (operational model of agonism), yeast growth reporter, GPA1/Gαi chimera strain", "setting": "[5]", "result": "8 -log10"}, {"measurement": "pKa (operational model of agonism), yeast growth reporter, GPA1/Gαq chimera strain", "setting": "[5]", "result": "7.71 -log10"}, {"measurement": "pKa (operational model of agonism), yeast growth reporter, GPA1/Gαs chimera strain", "setting": "[5]", "result": "8.1 -log10"}, {"measurement": "pEC50, yeast growth reporter, GPA1/Gαi chimera strain", "setting": "[6]", "result": "7.91 -log10"}, {"measurement": "pEC50, yeast growth reporter, GPA1/Gαq chimera strain", "setting": "[6]", "result": "7.93 -log10"}, {"measurement": "pEC50, yeast growth reporter, GPA1/Gαs chimera strain", "setting": "[6]", "result": "8.82 -log10"}, {"measurement": "pKa (operational model of agonism), yeast growth reporter, GPA1/Gαi chimera strain", "setting": "[6]", "result": "7.75 -log10"}, {"measurement": "pKa (operational model of agonism), yeast growth reporter, GPA1/Gαq chimera strain", "setting": "[6]", "result": "7.78 -log10"}, {"measurement": "pKa (operational model of agonism), yeast growth reporter, GPA1/Gαs chimera strain", "setting": "[6]", "result": "8.77 -log10"}, {"measurement": "pEC50, yeast growth reporter, GPA1/Gαi chimera strain", "setting": "[7]", "result": "8.38 -log10"}, {"measurement": "pEC50, yeast growth reporter, GPA1/Gαq chimera strain", "setting": "[7]", "result": "7.26 -log10"}, {"measurement": "pEC50, yeast growth reporter, GPA1/Gαs chimera strain", "setting": "[7]", "result": "8.8 -log10"}, {"measurement": "pKa (operational model of agonism), yeast growth reporter, GPA1/Gαi chimera strain", "setting": "[7]", "result": "8.2 -log10"}, {"measurement": "pKa (operational model of agonism), yeast growth reporter, GPA1/Gαq chimera strain", "setting": "[7]", "result": "7.19 -log10"}, {"measurement": "pKa (operational model of agonism), yeast growth reporter, GPA1/Gαs chimera strain", "setting": "[7]", "result": "8.81 -log10"}, {"measurement": "pEC50, (Ca^2+)i mobilization in HEK-293 cells", "setting": "[8]", "result": "8.12 -log10"}, {"measurement": "pKa (operational model of agonism), (Ca^2+)i mobilization in HEK-293 cells", "setting": "[8]", "result": "7.76 -log10"}, {"measurement": "pEC50, (Ca^2+)i mobilization in HEK-293S cells", "setting": "[9]", "result": "7.63 -log10"}, {"measurement": "pKa (operational model of agonism), (Ca^2+)i mobilization in HEK-293S cells", "setting": "[9]", "result": "7.42 -log10"}, {"measurement": "pEC50, (Ca^2+)i mobilization in HEK-293 cells", "setting": "[10]", "result": "7.9 -log10"}, {"measurement": "pKa (operational model of agonism), (Ca^2+)i mobilization in HEK-293 cells", "setting": "[10]", "result": "7.69 -log10"}, {"measurement": "pEC50, (Ca^2+)i mobilization in HEK-293S cells", "setting": "[11]", "result": "8.02 -log10"}, {"measurement": "pKa (operational model of agonism), (Ca^2+)i mobilization in HEK-293S cells", "setting": "[11]", "result": "8.56 -log10"}, {"measurement": "pEC50, (Ca^2+)i mobilization in HEK-293S cells", "setting": "[12]", "result": "7.68 -log10"}, {"measurement": "pKa (operational model of agonism), (Ca^2+)i mobilization in HEK-293S cells", "setting": "[12]", "result": "7.39 -log10"}, {"measurement": "pEC50, (Ca^2+)i mobilization in HEK-293 cells", "setting": "[13]", "result": "7.86 -log10"}, {"measurement": "pKa (operational model of agonism), (Ca^2+)i mobilization in HEK-293 cells", "setting": "[13]", "result": "7.45 -log10"}, {"measurement": "pEC50, cAMP accumulation in HEK-293 cells", "setting": "[14]", "result": "8.86 -log10"}, {"measurement": "pKa (operational model of agonism), cAMP accumulation in HEK-293 cells", "setting": "[14]", "result": "8.5 -log10"}, {"measurement": "pEC50, cAMP accumulation in HEK-293 cells", "setting": "[15]", "result": "7.92 -log10"}, {"measurement": "pKa (operational model of agonism), cAMP accumulation in HEK-293 cells", "setting": "[15]", "result": "7.64 -log10"}, {"measurement": "pEC50, cAMP accumulation in HEK-293 cells", "setting": "[16]", "result": "10.3 -log10"}, {"measurement": "pKa (operational model of agonism), cAMP accumulation in HEK-293 cells", "setting": "[16]", "result": "9.95 -log10"}, {"measurement": "pEC50, cAMP accumulation in HEK-293S cells, with PTX pretreatment", "setting": "[17]", "result": "8.03 -log10"}, {"measurement": "pEC50, cAMP accumulation in HEK-293S cells, without PTX", "setting": "[17]", "result": "8.13 -log10"}, {"measurement": "pEC50, cAMP accumulation in HEK-293S cells, with PTX pretreatment", "setting": "[18]", "result": "9.49 -log10"}, {"measurement": "pEC50, cAMP accumulation in HEK-293S cells, without PTX", "setting": "[18]", "result": "9.63 -log10"}, {"measurement": "pEC50, cAMP accumulation in HEK-293S cells, with PTX pretreatment", "setting": "[19]", "result": "9.38 -log10"}, {"measurement": "pEC50, cAMP accumulation in HEK-293S cells, without PTX", "setting": "[19]", "result": "9.39 -log10"}]}
